Article PMC7610862 (Nature microbiology, 2021)

T1: FliP (Salmonella enterica serovar Typhimurium, UniProt P54700 22-245)
T1 sequence (looked up): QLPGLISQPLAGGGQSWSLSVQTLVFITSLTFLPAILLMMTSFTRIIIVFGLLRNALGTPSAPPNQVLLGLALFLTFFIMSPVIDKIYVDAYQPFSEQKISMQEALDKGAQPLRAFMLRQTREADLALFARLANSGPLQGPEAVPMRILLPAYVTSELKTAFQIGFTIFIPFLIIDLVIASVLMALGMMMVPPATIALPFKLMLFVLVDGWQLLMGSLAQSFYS

B1: FlgI (natural protein, Salmonella enterica serovar Typhimurium, UniProt P15930 20-365, looked up)
chain: ERIRDLTSVQGVRENSLIGYGLVVGLDGTGDQTTQTPFTTQTLNNMLSQLGITVPTGTNMQLKNVAAVMVTASYPPFARQGQTIDVVVSSMGNAKSLRGGTLLMTPLKGVDSQVYALAQGNILVGGAGASAGGSSVQVNQLNGGRITNGAIIERELPTQFGAGNTINLQLNDEDFTMAQQITDAINRARGYGSATALDARTVQVRVPSGNSSQVRFLADIQNMEVNVTPQDAKVVINSRTGSVVMNREVTLDSCAVAQGNLSVTVNRQLNVNQPNTPFGGGQTVVTPQTQIDLRQSGGSLQSVRSSANLNSVVRALNALGATPMDLMSILQSMQSAGCLRAKLEII
B2: FlgF (natural protein, Salmonella enterica serovar Typhimurium, UniProt P16323 1-251, looked up)
chain: MDHAIYTAMGAASQTLNQQAVTASNLANASTPGFRAQLNALRAVPVDGLSLATRTLVTASTPGADMTPGQLDYTSRPLDVALQQDGWLVVQAADGAEGYTRNGNIQVGPTGQLTIQGHPVIGEGGPITVPEGSEITIAADGTISALNPGDPPNTVAPVGRLKLVKAEGNEVQRSDDGLFRLTAEAQAERGAVLAADPSIRIMSGVLEGSNVKPVEAMTDMIANARRFEMQMKVITSVDENEGRANQLLSMS
B3: FliE (natural protein, Salmonella enterica serovar Typhimurium, UniProt P26462 1-104, looked up)
chain: MAAIQGIEGVISQLQATAMAARGQDTHSQSTVSFAGQLHAALDRISDRQAAARVQAEKFTLGEPGIALNDVMADMQKASVSMQMGIQVRNKLVAAYQEVMSMQV
B4: FlgC (natural protein, Salmonella enterica serovar Typhimurium, UniProt P0A1I7 1-134, looked up)
chain: MALLNIFDIAGSALAAQSKRLNVAASNLANADSVTGPDGQPYRAKQVVFQVDAAPGQATGGVKVASVIESQAPEKLVYEPGNPLADANGYVKMPNVDVVGEMVNTMSASRSYQANIEVLNTVKSMMLKTLTLGQ
B5: FlgH (natural protein, Salmonella enterica serovar Typhimurium, UniProt P0A1N8 22-232, looked up)
chain: CAWIPAKPLVQGATTAQPIPGPVPVANGSIFQSAQPINYGYQPLFEDRRPRNIGDTLTIVLQENVSASKSSSANASRDGKTSFGFDTVPRYLQGLFGNSRADMEASGGNSFNGKGGANASNTFSGTLTVTVDQVLANGNLHVVGEKQIAINQGTEFIRFSGVVNPRTISGSNSVPSTQVADARIEYVGNGYINEAQNMGWLQRFFLNLSPM
modifications: lipidated N-terminal Cys (3 lipid moieties; diacylglycerol attached to the sidechain)
B6: FlgG (natural protein, Salmonella enterica serovar Typhimurium, UniProt P0A1J3 1-260, looked up)
chain: MISSLWIAKTGLDAQQTNMDVIANNLANVSTNGFKRQRAVFEDLLYQTIRQPGAQSSEQTTLPSGLQIGTGVRPVATERLHSQGNLSQTNNSKDVAIKGQGFFQVMLPDGTSAYTRDGSFQVDQNGQLVTAGGFQVQPAITIPANALSITIGRDGVVSVTQQGQAAPVQVGQLNLTTFMNDTGLESIGENLYIETQSSGAPNESTPGLNGAGLLYQGYVETSNVNVAEELVNMIQVQRAYEINSKAVSTTDQMLQKLTQL
B7: FlgB (natural protein, Salmonella enterica serovar Typhimurium, UniProt P16437 1-138, looked up)
chain: MLDRLDAALRFQQEALNLRAQRQEILAANIANADTPGYQARDIDFASELKKVMVRGREETGGVALTLTSSHHIPAQAVSSPAVDLLYRVPDQPSLDGNTVDMDRERTQFADNSLKYQMGLTVLGSQLKGMMNVLQGGN
B8: FliF (natural protein, Salmonella enterica serovar Typhimurium, UniProt P15928 1-560, looked up)
chain: MSATASTATQPKPLEWLNRLRANPRIPLIVAGSAAVAIVVAMVLWAKTPDYRTLFSNLSDQDGGAIVAQLTQMNIPYRFANGSGAIEVPADKVHELRLRLAQQGLPKGGAVGFELLDQEKFGISQFSEQVNYQRALEGELARTIETLGPVKSARVHLAMPKPSLFVREQKSPSASVTVTLEPGRALDEGQISAVVHLVSSAVAGLPPGNVTLVDQSGHLLTQSNTSGRDLNDAQLKFANDVESRIQRRIEAILSPIVGNGNVHAQVTAQLDFANKEQTEEHYSPNGDASKATLRSRQLNISEQVGAGYPGGVPGALSNQPAPPNEAPIATPPTNQQNAQNTPQTSTSTNSNSAGPRSTQRNETSNYEVDRTIRHTKMNVGDIERLSVAVVVNYKTLADGKPLPLTADQMKQIEDLTREAMGFSDKRGDTLNVVNSPFSAVDNTGGELPFWQQQSFIDQLLAAGRWLLVLVVAWILWRKAVRPQLTRRVEEAKAAQEQAQVRQETEEAVEVRLSKDEQLQQRRANQRLGAEVMSQRIREMSDNDPRVVALVIRQWMSNDHE
B9: FlgD (natural protein, Salmonella enterica serovar Typhimurium, UniProt P0A1I9 1-232, looked up)
chain: MSIAVNMNDPTNTGVKTTTGSGSMTGSNAADLQSSFLTLLVAQLKNQDPTNPLQNNELTTQLAQISTVSGIEKLNTTLGAISGQIDNSQSLQATTLIGHGVMVPGTTILAGKGAEEGAVTSTTPFGVELQQPADKVTATITDKDGRVVRTLEIGELRAGVHTFTWDGKQTDGTTVPNGSYNIAITASNGGTQLVAQPLQFALVQGVTKGSNGNLLDLGTYGTTTLDEVRQII

What was measured:
Test in all cases: cryo-EM structure
[1] = molecular target: the molecule itself
[2] = molecular target: B8
[3] = molecular target: B6
[4] = molecular target: B7
[5] = molecular target: T1, FliP
[6] = molecular target: B2
[7] = molecular target: B1

Binder	stoichiometry N [1]	binding result [2]	also measured
B1	26 copies	–	–
B2	5 copies	binds	binding result [3]: binds
B3	–	–	binding result [4]: binds; binding result [5]: binds
B4	6 copies	binds	binding result [6]: binds; binding result [4]: binds
B5	26 copies	–	binding result [7]: binds
B6	24 copies	–	binding result [7]: binds
B7	5 copies	binds	–
B8	34	–	–
B9	5	–	binding result [3]: binds
